Data on one substance can be found in patent publication US20170267757A1.

What all share (assay): sandwich ELISA, antibody as capture 100 ng/well, CHO-K1 supernatant, anti-human Ig-HRP
On the technique in general: In an ELISA, binding on a coated surface is turned into a signal by an enzyme label.

Test [1] deals with CD66c mutant (HPK/HdIII/PstI/klenow)-hFc (human).
Test [2] concerns the target CD66c-HuIgFc recombinant antigen (human).
Test [3] has as its target CD66c mutant (BI/BHI)-hFc (human).

Sequence of CD66c mutant (BI/BHI)-hFc (human) (chain, as listed by the source mutant limits assumed, form in doubt): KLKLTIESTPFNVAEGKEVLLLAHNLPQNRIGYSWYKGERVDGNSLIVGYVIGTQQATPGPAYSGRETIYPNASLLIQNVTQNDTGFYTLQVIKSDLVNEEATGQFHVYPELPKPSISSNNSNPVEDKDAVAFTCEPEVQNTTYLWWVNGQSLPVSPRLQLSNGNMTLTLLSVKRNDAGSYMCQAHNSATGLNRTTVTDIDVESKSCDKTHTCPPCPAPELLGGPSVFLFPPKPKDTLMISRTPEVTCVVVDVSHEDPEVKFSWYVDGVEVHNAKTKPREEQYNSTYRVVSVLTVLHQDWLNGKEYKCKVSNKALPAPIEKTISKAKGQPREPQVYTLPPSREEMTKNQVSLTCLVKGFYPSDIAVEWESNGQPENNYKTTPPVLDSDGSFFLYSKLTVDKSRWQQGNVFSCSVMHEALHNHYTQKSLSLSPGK
Sequence of CD66c-HuIgFc recombinant antigen (human) (chain, as listed by the source limits assumed): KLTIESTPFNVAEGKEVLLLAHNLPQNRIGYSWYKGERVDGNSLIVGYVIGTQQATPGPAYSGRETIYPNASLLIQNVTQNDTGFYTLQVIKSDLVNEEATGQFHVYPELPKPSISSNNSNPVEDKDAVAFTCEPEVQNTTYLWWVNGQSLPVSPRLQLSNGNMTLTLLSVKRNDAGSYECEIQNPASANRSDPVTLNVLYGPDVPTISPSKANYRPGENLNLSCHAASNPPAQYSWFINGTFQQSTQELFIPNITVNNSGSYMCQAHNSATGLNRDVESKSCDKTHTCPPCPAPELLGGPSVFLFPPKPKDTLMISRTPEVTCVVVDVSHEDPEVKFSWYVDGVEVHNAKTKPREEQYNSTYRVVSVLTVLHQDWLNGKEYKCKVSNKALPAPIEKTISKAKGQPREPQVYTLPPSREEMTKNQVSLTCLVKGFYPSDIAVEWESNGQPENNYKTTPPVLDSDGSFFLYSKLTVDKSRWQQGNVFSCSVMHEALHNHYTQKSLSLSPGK
Sequence of CD66c mutant (HPK/HdIII/PstI/klenow)-hFc (human) (chain, as listed by the source mutant limits assumed, form in doubt): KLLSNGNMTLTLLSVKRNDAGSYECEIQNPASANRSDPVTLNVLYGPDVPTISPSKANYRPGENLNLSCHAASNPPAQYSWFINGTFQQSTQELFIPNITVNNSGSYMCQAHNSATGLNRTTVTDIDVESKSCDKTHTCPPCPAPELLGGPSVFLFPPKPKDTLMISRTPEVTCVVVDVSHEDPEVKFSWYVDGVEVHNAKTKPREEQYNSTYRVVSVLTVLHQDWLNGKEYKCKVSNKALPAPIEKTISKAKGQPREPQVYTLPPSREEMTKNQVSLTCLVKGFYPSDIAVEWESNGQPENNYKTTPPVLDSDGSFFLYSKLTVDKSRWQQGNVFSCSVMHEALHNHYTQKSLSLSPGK

Take “9A6 anti-CD66c monoclonal antibody (Santa Cruz)”: the absorbance at 450 nm (absorbance at 450 nm) in test [1] was determined as 0.049; in test [2], 2.84; in test [3] it was 1.92.
